Target: T1, mouse integrin alpha7beta1 from digitonin-solubilized skeletal muscle (mouse, UniProt Q61738 34-1135; P09055 21-801, limits assumed)
T1 construct: also called integrin α7β1; alpha7beta1 integrin
Assay: WGA lectin affinity chromatography and sucrose gradient fractionation of digitonin-solubilized muscle, immunoblot
Text: Characterization of skeletal muscle dystroglycan and integrin α7 complexes. Sucrose gradient fractionation of the DGC and the integrin α7 complex from wild-type (A, C), DG-deficient (B) and integrin α7-null (D) skeletal muscle solubilized with digitonin. Glycoprotein preparations enriched by WGA-chromatography were fractionated by sucrose gradient centrifugation. Equal volumes of fractions were loaded on an SDS-PAGE gel. The blot generated from this was probed with antibodies against: integrin α7 (α7), integrin β1(β1), α-DG (α-DG), α-sarcoglycan (α-SG), β-sarcoglycan (β-SG) and γ-sarcoglycan (γ-SG).
Lectin affinity chromatography and sucrose gradient fractionation. Total muscle homogenates in TBS (50 mM Tris-Cl pH 7.4, 150 mM NaCl) were solubilized with 1% digitonin. After centrifugation at 140,000×g for 37 min, solubilized proteins in the supernatant were mixed with wheat germ agglutinin (WGA)-agarose beads (Vector Laboratories) and rotated end-over-end at 4° C. for 2 hours. WGA-bound proteins were eluted with TBS containing 0.3 M N-acetyl-D-glucosamine and 0.1% digitonin. The eluant was applied to a 5-30% sucrose gradient and centrifuged at 215,000×g for 90 min. Fractions (1 ml) were collected from the top of the gradient and analyzed by SDS-PAGE.

T1 sequence (Q61738 other isoform, or with tags, fused parts or gaps limits assumed, chain 1 of 2): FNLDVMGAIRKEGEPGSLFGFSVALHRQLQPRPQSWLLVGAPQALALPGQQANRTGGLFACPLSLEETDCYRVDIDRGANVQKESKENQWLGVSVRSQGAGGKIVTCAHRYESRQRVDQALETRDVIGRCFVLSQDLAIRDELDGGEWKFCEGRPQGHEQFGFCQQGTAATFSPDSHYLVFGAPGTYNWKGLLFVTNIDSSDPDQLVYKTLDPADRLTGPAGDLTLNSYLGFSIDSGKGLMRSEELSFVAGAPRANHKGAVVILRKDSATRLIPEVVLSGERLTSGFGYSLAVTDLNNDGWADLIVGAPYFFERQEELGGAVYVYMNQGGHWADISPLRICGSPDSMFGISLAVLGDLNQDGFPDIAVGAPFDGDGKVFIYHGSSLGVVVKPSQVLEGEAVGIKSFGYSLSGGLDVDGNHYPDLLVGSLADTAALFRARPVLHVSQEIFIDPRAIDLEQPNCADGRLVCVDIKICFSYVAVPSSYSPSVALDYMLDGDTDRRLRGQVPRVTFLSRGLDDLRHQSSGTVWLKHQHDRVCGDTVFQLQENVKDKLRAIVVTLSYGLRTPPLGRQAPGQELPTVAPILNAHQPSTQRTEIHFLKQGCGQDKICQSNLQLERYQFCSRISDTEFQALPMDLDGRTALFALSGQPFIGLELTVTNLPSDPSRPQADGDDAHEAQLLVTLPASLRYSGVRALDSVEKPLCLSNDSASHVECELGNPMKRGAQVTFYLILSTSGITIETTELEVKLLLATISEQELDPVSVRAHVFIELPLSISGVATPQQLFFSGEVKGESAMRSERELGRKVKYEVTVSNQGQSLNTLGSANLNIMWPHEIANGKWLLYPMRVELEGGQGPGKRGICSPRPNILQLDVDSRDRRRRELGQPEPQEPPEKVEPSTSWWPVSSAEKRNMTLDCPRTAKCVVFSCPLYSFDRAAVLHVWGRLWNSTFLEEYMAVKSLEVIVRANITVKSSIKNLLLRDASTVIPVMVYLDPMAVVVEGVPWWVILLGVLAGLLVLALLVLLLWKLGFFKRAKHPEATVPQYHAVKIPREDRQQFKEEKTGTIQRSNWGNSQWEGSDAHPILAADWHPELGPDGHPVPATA
T1 sequence (P09055 other isoform, or with tags, fused parts or gaps limits assumed, chain 2 of 2): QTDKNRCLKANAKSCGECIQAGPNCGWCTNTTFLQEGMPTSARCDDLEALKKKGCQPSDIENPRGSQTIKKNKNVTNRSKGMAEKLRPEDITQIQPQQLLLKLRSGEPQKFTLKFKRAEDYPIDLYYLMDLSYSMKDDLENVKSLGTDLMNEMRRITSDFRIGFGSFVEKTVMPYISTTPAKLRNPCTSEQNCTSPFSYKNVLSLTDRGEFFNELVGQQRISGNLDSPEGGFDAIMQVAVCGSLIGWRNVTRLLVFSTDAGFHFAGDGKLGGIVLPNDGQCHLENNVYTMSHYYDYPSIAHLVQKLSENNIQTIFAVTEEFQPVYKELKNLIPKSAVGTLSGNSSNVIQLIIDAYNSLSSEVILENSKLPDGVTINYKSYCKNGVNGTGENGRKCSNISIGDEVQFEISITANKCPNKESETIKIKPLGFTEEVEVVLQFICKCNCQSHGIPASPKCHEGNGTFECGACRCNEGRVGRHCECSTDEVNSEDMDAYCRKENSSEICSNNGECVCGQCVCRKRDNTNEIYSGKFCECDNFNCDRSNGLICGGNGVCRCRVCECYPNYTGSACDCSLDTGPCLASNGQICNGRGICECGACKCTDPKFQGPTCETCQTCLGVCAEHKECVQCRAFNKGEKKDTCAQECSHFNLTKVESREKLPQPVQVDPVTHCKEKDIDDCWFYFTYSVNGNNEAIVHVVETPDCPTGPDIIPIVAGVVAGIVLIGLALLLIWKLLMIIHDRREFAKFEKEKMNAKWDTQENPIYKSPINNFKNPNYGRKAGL

B1: mouse dystroglycan from digitonin-solubilized skeletal muscle (receptor)
chain 1: HWPSEPSEAVRDWKNQLEASMHSVLSDFQEAVPTVVGIPDGTAVVGRSFRVSIPTDLIASSGEIIKVSAAGKEALPSWLHWDPHSHILEGLPLDTDKGVHYISVSAARLGANGSHVPQTSSVFSIEVYPEDHNEPQSVRAASSDPGEVVPSACAADEPVTVLTVILDADLTKMTPKQRIDLLNRMQSFSEVELHNMKLVPVVNNRLFDMSAFMAGPGNAKKVVENGALLSWKLGCSLNQNSVPDIRGVETPAREGAMSAQLGYPVVGWHIANKKPTLPKRLRRQIHATPTPVTAIGPPTTAIQEPPSRIVPTPTSPAIAPPTETMAPPVRDPVPGKPTVTIRTRGAIIQTPTLGPIQPTRVSEAGTTVPGQIRPTLTIPGYVEPTAVITPPTTTTKKPRVSTPKPATPSTDSSTTTTRRPTKKPRTPRPVPRVTTKAPITRLETASPPTRIRTTTSGVPRGGEPNQRPELKNHIDRVDAWVGTYFEVKIPSDTFYDNEDTTTDKLKLTLKLREQQLVGEKSWVQFNSNSQLMYGLPDSSHVGKHEYFMHATDKGGLSAVDAFEIHVHKRPQGDKAPARFKARLAGDPAPVVNDIHKKIALVKKLAFAFGDRNCSSITLQNITRG
chain 2: SIVVEWTNNTLPLEPCPKEQIIGLSRRIADENGKPRPAFSNALEPDFKALSIAVTGSGSCRHLQFIPVAPPSPGSSAAPATEVPDRDPEKSSEDDVYLHTVIPAVVVAAILLIAGIIAMICYRKKRKGKLTLEDQATFIKKGVPIIFADELDDSKPPPSSSMPLILQEEKAPLPPPEYPNQSMPETTPLNQDTVGEYTPLRDEDPNAPPYQPPPPFTAPMEGKGSRPKNMTPYRSPPPYVPP
notes: Native protein, WGA-enriched, within the dystrophin-glycoprotein complex; also called DG; DGC
B1: no binding.

— patent publication US20110166081A1 (UNIVERSITY OF IOWA RESEARCH FOUNDATION, published 2011)
